Biological target: T1, N-GST-tagged Ythdf (full length) (Drosophila melanogaster, UniProt Q9VBZ5 1-700)
T1 sequence: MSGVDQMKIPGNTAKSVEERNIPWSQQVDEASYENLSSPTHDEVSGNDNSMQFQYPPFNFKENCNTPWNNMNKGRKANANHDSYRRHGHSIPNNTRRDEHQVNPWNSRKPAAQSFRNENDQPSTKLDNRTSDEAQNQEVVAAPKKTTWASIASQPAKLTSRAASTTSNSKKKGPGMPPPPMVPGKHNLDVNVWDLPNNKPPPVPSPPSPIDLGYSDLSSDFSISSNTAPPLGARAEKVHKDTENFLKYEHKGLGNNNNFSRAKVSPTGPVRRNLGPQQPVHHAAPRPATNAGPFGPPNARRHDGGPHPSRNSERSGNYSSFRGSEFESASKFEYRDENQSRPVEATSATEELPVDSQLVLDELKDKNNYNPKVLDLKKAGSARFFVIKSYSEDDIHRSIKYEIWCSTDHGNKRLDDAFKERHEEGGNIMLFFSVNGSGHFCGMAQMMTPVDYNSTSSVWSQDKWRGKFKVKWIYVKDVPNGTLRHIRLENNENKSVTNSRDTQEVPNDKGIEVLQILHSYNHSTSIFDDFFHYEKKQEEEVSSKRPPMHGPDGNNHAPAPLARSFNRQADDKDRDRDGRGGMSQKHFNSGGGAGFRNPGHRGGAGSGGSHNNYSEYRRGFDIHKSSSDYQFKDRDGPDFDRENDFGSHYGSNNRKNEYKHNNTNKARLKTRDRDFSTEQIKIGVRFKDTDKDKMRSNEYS
Experiment: pull-down

B1: N-His6-tagged NT-Fmr1 (220-684) (domain or fragment)
chain: not shown
binding result: binds
